Here are results for one molecule from patent publication US20250313634A1 (WUXI BIOLOGICS SHANGHAI, published 2025).

As a reminder, the IC50 is the concentration at which inhibition is half-maximal. Read a low IC50 as higher potency. As usually defined, the EC50 (read off the curve) is the concentration giving half of the maximal effect. Low values mean higher potency in that assay, high ones lower potency in that assay. In general, Kd refers to a measure of binding affinity in units of concentration.

Experiment [1] addresses T1, full-length human PD-L1 expressed on CHO cells (human, UniProt Q9NZQ7 19-290).
T1 construct: whole, on cells; also called CHO-K1 cells expressing human PD-L1; PD-L1 transfected CHO cells
Nature of the experiment: FACS competition on CHO cells expressing human PD-L1; competitor mouse Fc-tagged human PD-1. As for the experimental part: (§1) 3.1 Competition assay by FACS: to examine whether the fully human antibodies can block the binding of PD-L1 to PD-1, the CHO-K1 cells expressing human PD-L1 were incubated with various concentrations of the fully human antibodies at 4° C. for 1 hour. The unbound antibodies were washed away, and then the mouse Fc-tagged human PD-1 was added to the cells. The binding of human PD-1 to PD-L1 expressing cell was detected by using FITC-conjugated goat anti-mouse IgG, followed by the analysis using a BD Biosciences FACSCanto II and FlowJo Version software.
(§2) Then the mouse Fc-tagged human PD-1 was added to the cells. The binding of human PD-1 to PD-L1 expressing cell was detected by using FITC-conjugated goat anti-mouse IgG, followed by the FACS analysis.

Experiment [2] has as its target T2, mouse PD-L1_ECD.His protein (mouse, UniProt Q9EP73 19-239).
T2 construct: extracellular domain; Bought (Sino Biological, China); also called mPD-L1-His protein
Nature of the experiment: ELISA, 2 ug/ml 1.14.4 coated on the plate, mPD-L1-His protein titrated, HRP-anti-His detection. In general terms: An ELISA detects its analyte on a solid surface through an enzyme-linked reagent.

Experiment [3] addresses T1, full-length human PD-L1 expressed on …. Briefly: FACS on CHO cells transfected with full-length human PD-L1.
Experiment [4] has the same target. Nature of the experiment: FACS competition: blocking of mouse Fc-tagged human PD-1 binding to CHO cells expressing human PD-L1. As for the experimental part:
as §1, §2

Experiment [5] addresses T3, PD-L2 expressed on transfected CHO cells (Homo sapiens (Human), UniProt Q9BQ51 20-273).
T3 construct: also called PD-L2 of PD-1 ligand family
T3 sequence: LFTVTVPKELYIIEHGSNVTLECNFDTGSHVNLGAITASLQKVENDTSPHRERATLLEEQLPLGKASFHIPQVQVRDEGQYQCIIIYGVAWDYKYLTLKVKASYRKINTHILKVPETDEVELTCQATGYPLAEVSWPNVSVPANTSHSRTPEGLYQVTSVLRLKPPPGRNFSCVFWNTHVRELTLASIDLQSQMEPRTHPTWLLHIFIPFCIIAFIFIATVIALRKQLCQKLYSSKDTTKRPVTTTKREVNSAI
Briefly: FACS on PD-L2 transfected CHO-K1 cells, single bar, antibody concentration not shown. As for the experimental part:
3.8 Cross-family binding assay by FACS: to examine the cross-family binding activity of the fully human antibodies, cells lines that express PD-L2 were stained with the fully human antibodies, followed by 2nd antibody staining with FITC conjugated goat anti-human IgG Fc. PD-L1 expressing cells were used as positive control. Corresponding parental cell lines were used as negative controls. The stained cells were analyzed by using a BD Biosciences FACSCanto II and FlowJo Version software.
CHO cells transfected with PD-L1 or PD-L2 were stained with fully human PD-L1 antibodies and analysis by FACS.

In experiment [6] the target is T4, hPD-L1_ECD.His point mutant R86A (human, UniProt Q9NZQ7 19-238).
T4 construct: extracellular domain
Nature of the experiment: capture ELISA on coated 1.14.4; relative to silent alanine substitutions. In short, it runs like this:
(§3)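 Capture ELISA in which supernatant containing quantified PD-L1 alanine mutant was detected with HRP anti-His antibody. Absorbance was normalized to the average of control mutants. Epitope residues were called at binding fold change <0.55.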

Experiment [7] concerns the target T5, hPD-L1_ECD.His point mutant V111A (human, UniProt Q9NZQ7 19-238).
T5 construct: extracellular domain
The experiment is described as above. The procedure, abridged: as §3

Experiment [8] has as its target T6, hPD-L1_ECD.His point mutant Y56A (human, UniProt Q9NZQ7 19-238).
T6 construct: extracellular domain
The experiment is described as above. In short, it runs like this:
as §3

In the next experiment the target is T7, recombinant human PD-L1 (human, UniProt Q9NZQ7 19-238, limits assumed).
T7 construct: Used for the SPR analyte (3.2) and for the plate-coated human PD-L1 of the cross-species ELISA (3.7); also called human PD-L1 (SPR analyte); Human PD-L1 coated on ELISA plates
Nature of the experiment: surface plasmon resonance per legend paragraph 39 and paragraph 188; column Best fit-KD, mol/L from the legend. From the text:
3.2 Affinity test by surface plasmon resonance (SPR): Antibodies were characterized for affinity and binding kinetics to PD-L1 by SPR assay using ProteOn XPR36 (Bio-Rad). Protein A protein (Sigma) was immobilized to a GLM sensor chip (Bio-Rad) through amine coupling. Purified antibodies were flowed over the sensor chip and captured by the Protein A. The chip was rotated […] and washed with running buffer (1×PBS/0.01% Tween20, Bio-Rad) until the baseline is stable. Five concentrations of human PD-L1 and running buffer were flowed against the antibody flow cell at a flow rate 100 μL/min for an association phase of 240s, followed by 600s dissociation. The chip was regenerated with pH 1.7 H₃PO₄ after each run. The association and dissociation curve was fit to a 1:1 Langmiur binding model using ProteOn software.
(SPR reads the build-up and loss of mass on a sensor chip optically.)

T1 sequence (Q9NZQ7 19-290): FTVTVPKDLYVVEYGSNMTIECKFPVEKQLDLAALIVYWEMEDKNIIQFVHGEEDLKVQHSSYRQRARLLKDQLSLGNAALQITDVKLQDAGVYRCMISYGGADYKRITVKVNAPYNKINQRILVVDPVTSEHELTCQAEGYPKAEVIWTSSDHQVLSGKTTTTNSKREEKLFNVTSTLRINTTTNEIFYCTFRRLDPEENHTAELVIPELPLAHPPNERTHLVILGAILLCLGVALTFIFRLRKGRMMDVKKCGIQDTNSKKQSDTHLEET
T7 sequence (Q9NZQ7 19-238 limits assumed): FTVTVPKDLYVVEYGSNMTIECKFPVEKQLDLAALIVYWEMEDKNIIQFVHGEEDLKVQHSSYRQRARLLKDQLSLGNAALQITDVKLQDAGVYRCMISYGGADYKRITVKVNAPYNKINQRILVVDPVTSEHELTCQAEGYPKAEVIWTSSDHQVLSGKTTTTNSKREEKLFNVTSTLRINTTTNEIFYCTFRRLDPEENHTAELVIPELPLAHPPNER
T6 sequence (Q9NZQ7 19-238 Y56A): as the sequence (Q9NZQ7 19-238 limits assumed) above, with Y38A counted along it
T5 sequence (Q9NZQ7 19-238 V111A): as the sequence (Q9NZQ7 19-238 limits assumed) above, with V93A counted along it
T2 sequence (Q9EP73 19-239): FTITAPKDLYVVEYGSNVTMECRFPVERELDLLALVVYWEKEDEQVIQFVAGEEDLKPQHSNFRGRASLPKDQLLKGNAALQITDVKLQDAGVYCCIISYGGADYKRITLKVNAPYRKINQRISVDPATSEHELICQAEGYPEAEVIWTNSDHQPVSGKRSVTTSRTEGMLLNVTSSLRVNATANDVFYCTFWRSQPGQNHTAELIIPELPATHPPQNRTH
T4 sequence (Q9NZQ7 19-238 R86A): as the sequence (Q9NZQ7 19-238 limits assumed) above, with R68A counted along it

B1: 1.14.4 (antibody, V domains shown)
VH: EVQLLESGGGLVQPGGSLRLSCAASGFTFSSYAMSWVRQAPGKGLEWVSGISGSGGFTYYADSVKGRFTISRDNSKNTLYLQMNSLRAEDTAVYYCAKPPRGYNYGPFDYWGQGTLVTVSS
VL: SYVLTQPPSVSVAPGQTARITCGGNNIGSKSVHWYQQKPGQAPVLVVYDDSDRPSGIPERFSGSNSGNTATLTISRVEAGDEADYYCQVWDSSSDHVVFGGGTKLTVL
notes: Fully human monoclonal antibody with a human constant region of IgG4 isotype
As for B1, the IC50 in [1] is about 10 nM. Moreover, the binding result in [2] and in experiment [5] was “no binding” each time. The “EC50 (read off the curve)” value in [3] was about 1 nM. Moreover, the “IC50 (read off the curve)” value in [4] was about 2 nM. Besides, the fold change in experiment [6] is 1 fold; in experiment [7] it was 0.723 fold; in experiment [8], 0.84 fold. The Kd with recombinant human PD-L1 amounted to 0.392 nM.
